Values joined by “and” are separate entries in the source; they are usually repeats but may differ in a detail not shown here. Identical values can stand only once.
Experiments:
[1] = target: T1, RXRα LBD (Homo sapiens, UniProt P19793); assay: LBD:LBD heterodimer formation HTRF assay, sGFP-PPAR LBD titrated against biotinylated RXRα LBD coupled to Tb-SA; assay type: binding; details: sGFP-PPAR LBD titrated up to […]; 0.375 nM RXRα; no ligand; read-out: apparent Kd of heterodimer formation with RXRα LBD
T1 construct: His10-tag with TEV site (N, cleaved yes); made in house; host or cells: E. coli T7 express (co-expressed with GroEL/ES)
T1 sequence (P19793 226-462): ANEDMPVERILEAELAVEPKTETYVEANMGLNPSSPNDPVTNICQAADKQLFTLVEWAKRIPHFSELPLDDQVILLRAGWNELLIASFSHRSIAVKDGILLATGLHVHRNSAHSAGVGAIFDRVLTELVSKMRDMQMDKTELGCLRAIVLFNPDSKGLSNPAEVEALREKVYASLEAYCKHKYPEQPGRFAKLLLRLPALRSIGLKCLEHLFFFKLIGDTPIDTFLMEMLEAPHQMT

[2] = target: T2, biotinylated CBP-1 cofactor peptide (CREB-binding protein coactivator motif 1) (N-terminal biotin); assay: AlphaScreen or HTRF; as a27, with SR11237 (up to 100 μM) titrated together with unlabeled RXRα total mutant LBD (up to 8 μM); referenced to isolated sGFP-PPARγ LBD activated by rosiglitazone; details: both partners purified
T2 construct: coupled to Tb-streptavidin in the assay; also called CBP-1 peptide; CBP-derived peptide; source: bought: Eurogentec GmbH
T2 peptide: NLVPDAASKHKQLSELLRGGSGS

[3] = target: T3, biotinylated RXRα LBD (N-terminal Avi-tag) (human, UniProt P19793-1 226-462, biotin on the Lys residue in the Avi-tag); assay: FRET
T3 chain: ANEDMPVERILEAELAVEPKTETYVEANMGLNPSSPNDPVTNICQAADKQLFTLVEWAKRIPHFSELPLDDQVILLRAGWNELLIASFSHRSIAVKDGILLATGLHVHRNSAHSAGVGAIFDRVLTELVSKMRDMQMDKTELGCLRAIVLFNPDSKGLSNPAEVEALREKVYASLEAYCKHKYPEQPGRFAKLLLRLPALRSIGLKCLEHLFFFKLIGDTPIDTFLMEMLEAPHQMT

[4] = target: the molecule itself; assay: SEC; size exclusion chromatography during purification; 16/600 Superdex75 (and 16/600 Superdex200 for sGFP-RXRα) in 25 mM Hepes pH 7.5, 150 mM KF, 10% glycerol, 5 mM DTT
[5] = target: T4, sGFP-PPARα LBD (human, UniProt Q07869-1 198-468); assay: AlphaScreen or HTRF; LBD:LBD dimer formation; biotinylated RXRα LBD (0.375 nM) coupled to Tb-SA (0.75 nM) as FRET donor; sGFP-PPAR LBD titrated up to 4.8 μM, total sGFP kept constant with free sGFP; no ligand; HTRF assay buffer with 0.1% CHAPS and 1% DMSO; 1 h at RT; apparent Kd from the inflection point; details: both partners purified
T4 construct: PPARα LBD, human, UniProt Q07869-1, residues 198-468; source: E. coli T7 express, coexpressed with GroEL/ES, purified (Ni IMAC, TEV, reverse IMAC, SEC); not shown: His10, N-terminal, cleaved; sGFP, N-terminal, kept
T4 sequence (looked up): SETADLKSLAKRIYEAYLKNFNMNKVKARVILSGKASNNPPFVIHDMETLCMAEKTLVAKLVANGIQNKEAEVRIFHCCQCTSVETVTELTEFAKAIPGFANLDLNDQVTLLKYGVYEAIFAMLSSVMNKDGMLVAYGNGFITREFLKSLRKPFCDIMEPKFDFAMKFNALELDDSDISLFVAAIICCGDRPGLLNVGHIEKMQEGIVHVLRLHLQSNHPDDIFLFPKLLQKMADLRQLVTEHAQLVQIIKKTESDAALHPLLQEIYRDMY

[6] = target: T5, sGFP-PPARβ/δ LBD (human, UniProt Q03181-1 170-441); assay: as above; details: both partners purified
T5 construct: PPARβ/δ LBD, human, UniProt Q03181-1, residues 170-441; also called PPARδ; source: E. coli T7 express, coexpressed with GroEL/ES, purified (Ni IMAC, TEV, reverse IMAC, SEC); not shown: His10, N-terminal, cleaved; sGFP, N-terminal, kept
T5 sequence (looked up): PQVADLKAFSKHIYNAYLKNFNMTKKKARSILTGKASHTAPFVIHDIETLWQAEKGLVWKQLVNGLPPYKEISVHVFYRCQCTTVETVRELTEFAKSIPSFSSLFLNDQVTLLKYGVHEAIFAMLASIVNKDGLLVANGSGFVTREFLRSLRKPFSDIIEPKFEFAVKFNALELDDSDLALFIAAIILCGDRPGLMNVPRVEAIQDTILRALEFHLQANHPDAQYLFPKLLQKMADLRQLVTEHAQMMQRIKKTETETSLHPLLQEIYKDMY

B1: PPARδ: PPARδ LBD as fusion protein with N-terminal sGFP (protein)
chain: PQVADLKAFSKHIYNAYLKNFNMTKKKARSILTGKASHTAPFVIHDIETLWQAEKGLVWKQLVNGLPPYKEISVHVFYRCQCTTVETVRELTEFAKSIPSFSSLFLNDQVTLLKYGVHEAIFAMLASIVNKDGLLVANGSGFVTREFLRSLRKPFSDIIEPKFEFAVKFNALELDDSDLALFIAAIILCGDRPGLMNVPRVEAIQDTILRALEFHLQANHPDAQYLFPKLLQKMADLRQLVTEHAQMMQRIKKTETETSLHPLLQEIYKDMY
modifications: left off: His10, N-terminal, cleaved | sGFP, N-terminal, kept
[1]
  Kd: 363 nM

B2: PPARα: PPARα LBD as fusion protein with N-terminal sGFP (protein)
chain: SETADLKSLAKRIYEAYLKNFNMNKVKARVILSGKASNNPPFVIHDMETLCMAEKTLVAKLVANGIQNKEAEVRIFHCCQCTSVETVTELTEFAKAIPGFANLDLNDQVTLLKYGVYEAIFAMLSSVMNKDGMLVAYGNGFITREFLKSLRKPFCDIMEPKFDFAMKFNALELDDSDISLFVAAIICCGDRPGLLNVGHIEKMQEGIVHVLRLHLQSNHPDDIFLFPKLLQKMADLRQLVTEHAQLVQIIKKTESDAALHPLLQEIYRDMY
modifications: left off: His10, N-terminal, cleaved | sGFP, N-terminal, kept
[1]
  Kd: 72 nM

B3: sGFP-PPARγ LBD:RXRα total mutant LBD (unlabeled) heterodimer (complex, human)
chain 1: PESADLRALAKHLYDSYIKSFPLTKAKARAILTGKTTDKSPFVIYDMNSLMMGEDKIKFKHITPLQEQSKEVAIRIFQGCQFRSVEAVQEITEYAKSIPGFVNLDLNDQVTLLKYGVHEIIYTMLASLMNKDGVLISEGQGFMTREFLKSLRKPFGDFMEPKFEFAVKFNALELDDSDLAIFIAVIILSGDRPGLLNVKPIEDIQDNLLQALELQLKLNHPESSQLFAKLLQKMTDLRQIVTEHVQLLQVIKKTETDMSLHPLLQEIYKDLY
chain 2: TSSANEDMPVERILEAELAVEPKTETYVEANMGLNPSSPNDPVTNICQAADKQLFTLTEWAERIPHFSELPLDDQTILLRAGWNELLIASFSHRSIAVKDGILLATGLHVHRNSAHSAGVGAIFDRVLTELVSKMRDMQMDKTELGCLRAIVLFNPDSKGLSNPAEVEALREKVYASLEAYCKHKYPEQPGRFAKLLLRLPALRSIGLKCLEHLFFFKLIGDTPIDTYLMRMLEAPHQMT
notes: PPARγ isoform 2 LBD, human, UniProt P37231-1, residues 234-505; RXRα LBD, human, residues 223-462, five AF-2 mutations; also called LBD:LBD heterodimer with RXRα; source: mixed from the purified E. coli proteins (100 nM sGFP-PPARγ LBD, RXRα total mutant LBD titrated); not shown: His10, N-terminal, cleaved; sGFP, N-terminal, kept; MBP, N-terminal, cleaved; His8, N-terminal, cleaved
[2]
  CBP-1 recruitment relative to full activation of monomeric PPARγ with rosiglitazone (%): 26%

B4: sGFP-RXRα LBD wildtype (domain or fragment, human, UniProt P19793-1 226-462, looked up)
chain: ANEDMPVERILEAELAVEPKTETYVEANMGLNPSSPNDPVTNICQAADKQLFTLVEWAKRIPHFSELPLDDQVILLRAGWNELLIASFSHRSIAVKDGILLATGLHVHRNSAHSAGVGAIFDRVLTELVSKMRDMQMDKTELGCLRAIVLFNPDSKGLSNPAEVEALREKVYASLEAYCKHKYPEQPGRFAKLLLRLPALRSIGLKCLEHLFFFKLIGDTPIDTFLMEMLEAPHQMT
notes: retinoid X receptor alpha (RXRα) LBD, human, UniProt P19793-1, residues 226-462; only the fractions eluting as monomer in the second SEC were used; also called RXRα as a fusion protein with sGFP; RXRα wt; source: E. coli T7 express, coexpressed with GroEL/ES, purified (Ni IMAC, TEV, two SEC steps); not shown: His10, N-terminal, cleaved; sGFP, N-terminal, kept
[3]
  Kd: 50 nM and 28 nM
[4]
  stoichiometry N: 2

B5: biotinylated RXRα LBD (N-terminal Avi-tag) (domain or fragment, human, UniProt P19793-1 226-462, looked up)
chain: ANEDMPVERILEAELAVEPKTETYVEANMGLNPSSPNDPVTNICQAADKQLFTLVEWAKRIPHFSELPLDDQVILLRAGWNELLIASFSHRSIAVKDGILLATGLHVHRNSAHSAGVGAIFDRVLTELVSKMRDMQMDKTELGCLRAIVLFNPDSKGLSNPAEVEALREKVYASLEAYCKHKYPEQPGRFAKLLLRLPALRSIGLKCLEHLFFFKLIGDTPIDTFLMEMLEAPHQMT
modifications: biotin on the Lys residue in the Avi-tag
notes: retinoid X receptor alpha (RXRα) LBD, human, UniProt P19793-1, residues 226-462; coupled to Tb-streptavidin in the assay; also called biotin-labeled RXRα LBD; source: E. coli T7 express, coexpressed with GroEL/ES, purified (Ni IMAC, TEV and BirA, monomeric avidin, SEC); not shown: His10, N-terminal, cleaved; Avi-tag, N-terminal, kept
[5]
  Kd: 72 nM
[6]
  Kd: 363 nM

Reference: publication PMC8258697 (The Journal of Biological Chemistry, 2021)
